Results reported in PMC8269012.

Biological target: PwNAC11-cYFP fusion protein (Picea wilsonii)

B1: ABF3 in pSPYNE (BiFC fusion) (natural protein)
chain: MGSRLNFKSFVDGVSEQQPTVGTSLPLTRQNSVFSLTFDEFQNSWGGGIGKDFGSMNMDELLKNIWTAEESHSMMGNNTSYTNISNGNSGNTVINGGGNNIGGLAVGVGGESGGFFTGGSLQRQGSLTLPRTISQKRVDDVWKELMKEDDIGNGVVNGGTSGIPQRQQTLGEMTLEEFLVRAGVVREEPQPVESVTNFNGGFYGFGSNGGLGTASNGFVANQPQDLSGNGVAVRQDLLTAQTQPLQMQQPQMVQQPQMVQQPQQLIQTQERPFPKQTTIAFSNTVDVVNRSQPATQCQEVKPSILGIHNHPMNNNLLQAVDFKTGVTVAAVSPGSQMSPDLTPKSALDASLSPVPYMFGRVRKTGAVLEKVIERRQKRMIKNRESAARSRARKQAYTMELEAEIAQLKELNEELQKKQVEIMEKQKNQLLEPLRQPWGMGCKRQCLRRTLTGPW
dual-luciferase assay in tobacco: activation of the ERD1 promoter reporter on simultaneous expression of PwNAC11 and ABF3, against the control group (PwNAC11 alone 2.67-fold over empty vector): 3.04 fold
